Data as given in article PMC10395195.

Key:
[1] = molecular target: Tle1^Vc (Vibrio cholerae E1); experiment: ITC
[2] = molecular target: Tle1^Vc (Vibrio cholerae E1); experiment: SPR

Row | Substance | Kd [1] | Kd [2]
1 | Tli1^tox- (natural protein) | 0.35 nM | –
2 | VgrG1^E1 (natural protein) | – | 2030 nM
